Experiments:
[1] = biological target: 'live' C3 (C3 with an intact thiol ester bond), P01024
[2] = biological target: T1, C1r CCP1-CCP2-SP S654A, P00736
T1 chain: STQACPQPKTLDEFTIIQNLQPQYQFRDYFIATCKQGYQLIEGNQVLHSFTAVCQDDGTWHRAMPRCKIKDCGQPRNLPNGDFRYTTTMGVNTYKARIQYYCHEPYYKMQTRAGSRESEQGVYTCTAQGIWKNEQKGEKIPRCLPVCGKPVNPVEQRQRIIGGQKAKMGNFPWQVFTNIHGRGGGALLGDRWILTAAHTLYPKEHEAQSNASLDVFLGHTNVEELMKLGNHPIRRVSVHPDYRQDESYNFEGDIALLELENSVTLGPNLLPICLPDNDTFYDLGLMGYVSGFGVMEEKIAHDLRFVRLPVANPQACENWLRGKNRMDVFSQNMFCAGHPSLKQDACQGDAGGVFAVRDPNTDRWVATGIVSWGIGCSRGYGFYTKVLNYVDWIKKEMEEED

[3] = biological target: T2, C1r CCP2-SP S654A, P00736
T2 chain: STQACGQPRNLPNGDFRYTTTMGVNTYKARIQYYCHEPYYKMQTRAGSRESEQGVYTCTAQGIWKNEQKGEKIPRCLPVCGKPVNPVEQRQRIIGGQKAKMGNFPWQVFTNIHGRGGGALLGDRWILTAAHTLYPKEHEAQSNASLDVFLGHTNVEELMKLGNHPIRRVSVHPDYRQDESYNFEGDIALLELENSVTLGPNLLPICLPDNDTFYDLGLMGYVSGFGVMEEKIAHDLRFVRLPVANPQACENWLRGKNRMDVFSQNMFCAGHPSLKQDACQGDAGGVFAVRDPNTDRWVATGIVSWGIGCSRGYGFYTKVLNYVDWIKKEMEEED

C1r SP S654A, P00736 = biological target: T3, C1r SP S654A, P00736
T3 chain: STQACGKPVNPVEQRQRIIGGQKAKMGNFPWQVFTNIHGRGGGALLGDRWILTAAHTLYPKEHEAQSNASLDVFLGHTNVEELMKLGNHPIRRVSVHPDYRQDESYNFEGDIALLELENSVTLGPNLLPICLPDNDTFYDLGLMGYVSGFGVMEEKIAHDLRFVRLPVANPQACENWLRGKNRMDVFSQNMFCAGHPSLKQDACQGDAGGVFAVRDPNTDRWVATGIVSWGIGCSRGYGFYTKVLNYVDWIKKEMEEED

Proenzyme C1s, P09871 = biological target: T4, Proenzyme C1s, P09871
T4 chain: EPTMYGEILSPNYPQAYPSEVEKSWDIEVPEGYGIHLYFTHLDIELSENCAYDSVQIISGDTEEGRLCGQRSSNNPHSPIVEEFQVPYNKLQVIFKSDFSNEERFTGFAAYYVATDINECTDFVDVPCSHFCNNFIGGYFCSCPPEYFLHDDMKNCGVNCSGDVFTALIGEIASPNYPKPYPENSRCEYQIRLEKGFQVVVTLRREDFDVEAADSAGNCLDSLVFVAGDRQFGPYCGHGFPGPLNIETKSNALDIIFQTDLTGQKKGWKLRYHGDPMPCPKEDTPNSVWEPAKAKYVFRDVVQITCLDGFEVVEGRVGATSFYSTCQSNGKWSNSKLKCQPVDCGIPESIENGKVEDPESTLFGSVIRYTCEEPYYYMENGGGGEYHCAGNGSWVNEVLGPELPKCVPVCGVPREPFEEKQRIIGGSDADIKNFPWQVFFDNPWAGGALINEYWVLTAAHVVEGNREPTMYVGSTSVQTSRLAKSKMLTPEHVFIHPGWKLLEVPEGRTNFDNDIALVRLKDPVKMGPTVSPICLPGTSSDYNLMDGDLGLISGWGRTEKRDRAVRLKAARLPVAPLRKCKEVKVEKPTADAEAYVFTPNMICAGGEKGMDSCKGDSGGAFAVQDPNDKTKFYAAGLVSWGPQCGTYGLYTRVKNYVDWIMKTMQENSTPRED

Human C2, P06681 = biological target: T5, Human C2, P06681
T5 chain: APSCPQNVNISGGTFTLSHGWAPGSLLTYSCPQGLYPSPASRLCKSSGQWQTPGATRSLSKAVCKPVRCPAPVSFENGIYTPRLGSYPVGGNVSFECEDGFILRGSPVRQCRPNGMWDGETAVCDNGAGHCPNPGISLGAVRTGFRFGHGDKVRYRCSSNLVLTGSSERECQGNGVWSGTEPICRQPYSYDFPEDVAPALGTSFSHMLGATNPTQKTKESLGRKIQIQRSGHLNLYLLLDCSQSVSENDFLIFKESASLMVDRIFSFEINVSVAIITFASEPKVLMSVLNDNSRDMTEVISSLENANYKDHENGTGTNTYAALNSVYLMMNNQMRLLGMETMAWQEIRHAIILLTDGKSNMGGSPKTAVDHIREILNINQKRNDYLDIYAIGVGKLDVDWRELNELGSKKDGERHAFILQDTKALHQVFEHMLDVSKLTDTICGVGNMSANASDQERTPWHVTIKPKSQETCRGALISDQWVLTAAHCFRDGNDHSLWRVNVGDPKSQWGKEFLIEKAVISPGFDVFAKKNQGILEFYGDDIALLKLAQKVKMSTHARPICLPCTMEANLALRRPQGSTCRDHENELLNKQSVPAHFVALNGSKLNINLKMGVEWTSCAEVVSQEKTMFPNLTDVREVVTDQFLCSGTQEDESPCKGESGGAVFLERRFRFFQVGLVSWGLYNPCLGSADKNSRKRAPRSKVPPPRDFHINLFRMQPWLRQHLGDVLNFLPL

[4] = biological target: T6, alpha-2-macroglobulin, P01023
T6 chain: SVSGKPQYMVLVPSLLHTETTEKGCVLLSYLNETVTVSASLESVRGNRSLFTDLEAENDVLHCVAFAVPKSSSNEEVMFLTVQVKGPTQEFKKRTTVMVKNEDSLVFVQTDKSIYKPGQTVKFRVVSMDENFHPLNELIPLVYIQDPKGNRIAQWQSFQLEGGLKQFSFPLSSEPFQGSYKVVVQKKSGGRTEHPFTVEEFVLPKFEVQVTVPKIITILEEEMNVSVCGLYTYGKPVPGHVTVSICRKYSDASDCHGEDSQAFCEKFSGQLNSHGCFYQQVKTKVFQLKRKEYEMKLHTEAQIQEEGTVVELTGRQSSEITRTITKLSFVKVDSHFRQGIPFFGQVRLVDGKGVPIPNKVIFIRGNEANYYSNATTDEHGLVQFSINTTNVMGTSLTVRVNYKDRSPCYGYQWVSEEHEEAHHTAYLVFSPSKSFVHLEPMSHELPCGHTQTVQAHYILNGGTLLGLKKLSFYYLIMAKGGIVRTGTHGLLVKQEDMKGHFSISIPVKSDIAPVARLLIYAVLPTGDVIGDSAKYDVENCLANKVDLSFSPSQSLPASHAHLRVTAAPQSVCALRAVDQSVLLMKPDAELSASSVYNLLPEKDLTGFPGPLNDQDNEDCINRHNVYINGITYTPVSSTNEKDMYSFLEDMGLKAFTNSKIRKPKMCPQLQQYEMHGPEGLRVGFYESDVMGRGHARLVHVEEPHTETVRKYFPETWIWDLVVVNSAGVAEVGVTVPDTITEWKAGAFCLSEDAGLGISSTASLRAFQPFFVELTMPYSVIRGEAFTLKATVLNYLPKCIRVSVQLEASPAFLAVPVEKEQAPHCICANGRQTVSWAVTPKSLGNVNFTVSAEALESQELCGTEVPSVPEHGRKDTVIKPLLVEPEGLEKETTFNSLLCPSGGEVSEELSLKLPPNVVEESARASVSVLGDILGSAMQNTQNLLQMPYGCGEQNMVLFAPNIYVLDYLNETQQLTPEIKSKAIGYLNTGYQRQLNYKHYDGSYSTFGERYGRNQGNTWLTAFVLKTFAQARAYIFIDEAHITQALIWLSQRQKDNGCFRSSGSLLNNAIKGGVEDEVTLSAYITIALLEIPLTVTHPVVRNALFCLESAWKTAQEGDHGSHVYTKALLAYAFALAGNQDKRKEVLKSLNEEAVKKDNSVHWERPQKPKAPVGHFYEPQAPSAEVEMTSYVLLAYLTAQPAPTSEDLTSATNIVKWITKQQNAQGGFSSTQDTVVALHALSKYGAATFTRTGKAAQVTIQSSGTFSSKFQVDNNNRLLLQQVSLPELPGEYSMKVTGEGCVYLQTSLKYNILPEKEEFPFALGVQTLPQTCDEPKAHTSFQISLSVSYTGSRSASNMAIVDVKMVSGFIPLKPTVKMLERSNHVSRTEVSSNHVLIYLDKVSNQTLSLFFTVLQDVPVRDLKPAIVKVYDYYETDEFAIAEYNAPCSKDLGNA

Chain of Human C4, P0C0L4 (P0C0L4 whole entry, looked up, the tested form may be a part): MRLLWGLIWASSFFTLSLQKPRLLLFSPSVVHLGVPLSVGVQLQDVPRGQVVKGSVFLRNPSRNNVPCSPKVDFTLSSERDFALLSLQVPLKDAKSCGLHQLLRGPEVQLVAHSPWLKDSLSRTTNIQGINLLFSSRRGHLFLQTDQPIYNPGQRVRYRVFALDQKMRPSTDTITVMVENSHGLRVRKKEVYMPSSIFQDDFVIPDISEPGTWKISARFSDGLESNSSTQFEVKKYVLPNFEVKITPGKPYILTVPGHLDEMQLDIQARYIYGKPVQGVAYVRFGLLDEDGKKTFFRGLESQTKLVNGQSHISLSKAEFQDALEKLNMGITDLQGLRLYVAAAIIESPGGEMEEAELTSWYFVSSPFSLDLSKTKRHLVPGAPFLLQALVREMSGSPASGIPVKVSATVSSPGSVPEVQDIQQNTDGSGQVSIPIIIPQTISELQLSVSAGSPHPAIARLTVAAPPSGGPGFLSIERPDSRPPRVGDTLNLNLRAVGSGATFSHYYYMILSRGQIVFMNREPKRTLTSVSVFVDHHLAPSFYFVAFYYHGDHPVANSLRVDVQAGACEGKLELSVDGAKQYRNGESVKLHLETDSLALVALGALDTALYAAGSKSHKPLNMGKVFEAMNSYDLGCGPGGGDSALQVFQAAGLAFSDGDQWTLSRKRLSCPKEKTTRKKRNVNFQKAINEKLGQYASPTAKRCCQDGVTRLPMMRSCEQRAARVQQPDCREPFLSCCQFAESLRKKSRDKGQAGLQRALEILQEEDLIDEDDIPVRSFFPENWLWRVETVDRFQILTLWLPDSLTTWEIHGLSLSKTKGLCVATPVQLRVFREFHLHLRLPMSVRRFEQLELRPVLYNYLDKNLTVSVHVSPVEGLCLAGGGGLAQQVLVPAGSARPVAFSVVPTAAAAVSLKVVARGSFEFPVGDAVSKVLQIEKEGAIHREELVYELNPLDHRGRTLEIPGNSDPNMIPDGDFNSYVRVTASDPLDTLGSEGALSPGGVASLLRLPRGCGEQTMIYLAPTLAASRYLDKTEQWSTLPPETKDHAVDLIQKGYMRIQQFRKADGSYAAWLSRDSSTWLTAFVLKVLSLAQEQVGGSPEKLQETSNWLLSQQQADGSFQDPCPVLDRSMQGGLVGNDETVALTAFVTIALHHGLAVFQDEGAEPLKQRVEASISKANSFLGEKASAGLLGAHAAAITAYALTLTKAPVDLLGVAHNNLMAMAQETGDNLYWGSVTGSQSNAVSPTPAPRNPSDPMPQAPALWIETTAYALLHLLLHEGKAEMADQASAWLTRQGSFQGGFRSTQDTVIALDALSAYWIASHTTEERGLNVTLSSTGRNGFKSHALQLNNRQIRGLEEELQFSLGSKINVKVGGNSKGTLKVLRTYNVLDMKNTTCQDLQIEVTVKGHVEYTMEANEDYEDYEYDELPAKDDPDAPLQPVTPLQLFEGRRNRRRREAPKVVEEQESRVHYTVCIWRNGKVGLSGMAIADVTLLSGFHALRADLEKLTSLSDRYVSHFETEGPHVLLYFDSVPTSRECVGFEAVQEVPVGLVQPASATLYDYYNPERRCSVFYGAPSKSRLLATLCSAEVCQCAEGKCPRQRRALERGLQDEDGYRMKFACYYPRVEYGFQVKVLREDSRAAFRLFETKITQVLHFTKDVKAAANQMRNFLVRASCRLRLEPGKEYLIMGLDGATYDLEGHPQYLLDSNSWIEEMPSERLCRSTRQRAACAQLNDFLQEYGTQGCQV
Chain of 'live' C3 (C3 with an intact thiol ester bond), P01024 (P01024 whole entry, looked up): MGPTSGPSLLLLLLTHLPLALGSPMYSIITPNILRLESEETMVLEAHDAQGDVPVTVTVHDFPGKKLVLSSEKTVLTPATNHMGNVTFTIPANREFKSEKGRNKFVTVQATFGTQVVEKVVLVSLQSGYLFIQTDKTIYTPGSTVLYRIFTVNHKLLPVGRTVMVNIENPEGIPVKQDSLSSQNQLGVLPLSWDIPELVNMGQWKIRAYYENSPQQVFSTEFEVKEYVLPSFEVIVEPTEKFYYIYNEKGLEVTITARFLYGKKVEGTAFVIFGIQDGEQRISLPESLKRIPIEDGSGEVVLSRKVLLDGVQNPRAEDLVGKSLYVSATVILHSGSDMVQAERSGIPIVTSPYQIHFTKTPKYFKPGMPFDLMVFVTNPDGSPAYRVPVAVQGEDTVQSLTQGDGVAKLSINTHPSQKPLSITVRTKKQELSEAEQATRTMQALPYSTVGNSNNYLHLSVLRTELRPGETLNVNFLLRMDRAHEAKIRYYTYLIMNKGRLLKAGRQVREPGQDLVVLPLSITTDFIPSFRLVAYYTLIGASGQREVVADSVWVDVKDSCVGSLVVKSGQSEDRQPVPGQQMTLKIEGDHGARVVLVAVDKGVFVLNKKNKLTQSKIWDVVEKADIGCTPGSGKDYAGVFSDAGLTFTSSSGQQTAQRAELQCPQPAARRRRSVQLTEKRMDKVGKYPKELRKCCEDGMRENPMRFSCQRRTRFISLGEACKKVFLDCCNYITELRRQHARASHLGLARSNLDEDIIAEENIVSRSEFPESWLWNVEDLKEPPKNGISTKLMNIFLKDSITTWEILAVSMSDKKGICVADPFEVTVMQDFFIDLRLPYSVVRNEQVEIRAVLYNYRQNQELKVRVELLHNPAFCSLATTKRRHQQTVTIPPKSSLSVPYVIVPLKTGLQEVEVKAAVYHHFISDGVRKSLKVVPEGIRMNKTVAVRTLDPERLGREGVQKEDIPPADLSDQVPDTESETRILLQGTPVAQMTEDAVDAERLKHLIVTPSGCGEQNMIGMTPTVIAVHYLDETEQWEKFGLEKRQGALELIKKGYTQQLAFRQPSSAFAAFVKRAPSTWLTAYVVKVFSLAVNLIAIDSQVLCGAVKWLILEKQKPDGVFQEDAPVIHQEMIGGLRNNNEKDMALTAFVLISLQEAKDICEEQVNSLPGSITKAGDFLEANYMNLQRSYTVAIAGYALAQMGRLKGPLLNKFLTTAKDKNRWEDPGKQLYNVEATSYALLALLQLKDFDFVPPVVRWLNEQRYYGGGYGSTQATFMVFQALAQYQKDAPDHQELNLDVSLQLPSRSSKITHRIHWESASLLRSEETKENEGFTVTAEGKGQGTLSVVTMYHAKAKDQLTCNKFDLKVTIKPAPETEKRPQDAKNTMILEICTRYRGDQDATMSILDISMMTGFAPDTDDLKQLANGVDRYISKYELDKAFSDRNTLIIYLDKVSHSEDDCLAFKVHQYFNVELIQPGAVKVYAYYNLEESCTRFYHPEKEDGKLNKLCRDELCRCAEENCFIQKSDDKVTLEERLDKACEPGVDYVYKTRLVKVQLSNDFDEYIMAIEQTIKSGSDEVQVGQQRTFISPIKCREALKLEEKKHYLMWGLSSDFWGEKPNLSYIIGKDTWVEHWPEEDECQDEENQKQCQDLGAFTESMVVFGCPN
Chain of 'dead' C3(NH3), P01024 (P01024 whole entry, looked up, the tested form may be a part): as the sequence (P01024 whole entry, looked up) above

Protein	cleavage of 'dead' C3 (control) ('dead' C3(NH3), P01024)	cleavage of 'live' C3 (control) [1]	kcat/KM, cleavage of S654A zymogen [2] [s^-1M^-1]	kcat/KM, cleavage of S654A zymogen [3] [s^-1M^-1]	kcat/KM, cleavage of S654A zymogen (C1r SP S654A, P00736) [s^-1M^-1]	kcat/KM, C1s cleavage (Proenzyme C1s, P09871) [s^-1M^-1]	KM, C2 cleavage (Human C2, P06681) [µM]	kcat, C2 cleavage (Human C2, P06681) [s⁻¹]	kcat/KM, C2 cleavage (Human C2, P06681) [M⁻¹ s⁻¹]	KM, C4 cleavage (Human C4, P0C0L4) [µM]	fold increase in the kcat/KM value of C4 cleavage against the SP domain alone (Human C4, P0C0L4)	kcat, C4 cleavage (Human C4, P0C0L4) [s⁻¹]	kcat/KM, C4 cleavage (Human C4, P0C0L4) [M⁻¹ s⁻¹]	molar excess needed to abolish cleavage of complement substrates [4]
C1r CCP1-CCP2-SP fragment (wild-type) (protein) chain 1: STQACPQPKTLDEFTIIQNLQPQYQFRDYFIATCKQGYQLIEGNQVLHSFTAVCQDDGTWHRAMPRCKIKDCGQPRNLPNGDFRYTTTMGVNTYKARIQYYCHEPYYKMQTRAGSRESEQGVYTCTAQGIWKNEQKGEKIPRCLPVCGKPVNPVEQRQR chain 2: IIGGQKAKMGNFPWQVFTNIHGRGGGALLGDRWILTAAHTLYPKEHEAQSNASLDVFLGHTNVEELMKLGNHPIRRVSVHPDYRQDESYNFEGDIALLELENSVTLGPNLLPICLPDNDTFYDLGLMGYVSGFGVMEEKIAHDLRFVRLPVANPQACENWLRGKNRMDVFSQNMFCAGHPSLKQDACQGDSGGVFAVRDPNTDRWVATGIVSWGIGCSRGYGFYTKVLNYVDWIKKEMEEED	we observed no cleavages of either 'live' or 'dead' C3	we observed no cleavages of either 'live' or 'dead' C3	6200	15900	45000	58000								
C1r SP fragment (wild-type) (protein) chain 1: STQACGKPVNPVEQRQR chain 2: IIGGQKAKMGNFPWQVFTNIHGRGGGALLGDRWILTAAHTLYPKEHEAQSNASLDVFLGHTNVEELMKLGNHPIRRVSVHPDYRQDESYNFEGDIALLELENSVTLGPNLLPICLPDNDTFYDLGLMGYVSGFGVMEEKIAHDLRFVRLPVANPQACENWLRGKNRMDVFSQNMFCAGHPSLKQDACQGDSGGVFAVRDPNTDRWVATGIVSWGIGCSRGYGFYTKVLNYVDWIKKEMEEED			72000	75000	71000	28000								
C1r CCP2-SP fragment (wild-type) (protein) chain 1: STQACGQPRNLPNGDFRYTTTMGVNTYKARIQYYCHEPYYKMQTRAGSRESEQGVYTCTAQGIWKNEQKGEKIPRCLPVCGKPVNPVEQRQR chain 2: IIGGQKAKMGNFPWQVFTNIHGRGGGALLGDRWILTAAHTLYPKEHEAQSNASLDVFLGHTNVEELMKLGNHPIRRVSVHPDYRQDESYNFEGDIALLELENSVTLGPNLLPICLPDNDTFYDLGLMGYVSGFGVMEEKIAHDLRFVRLPVANPQACENWLRGKNRMDVFSQNMFCAGHPSLKQDACQGDSGGVFAVRDPNTDRWVATGIVSWGIGCSRGYGFYTKVLNYVDWIKKEMEEED			74000	130000	68000	208000								
MASP-2 CCP2-SP fragment (protein) chain 1: ASMTIVDCGPPDDLPSGRVEYITGPGVTTYKAVIQYSCEETFYTMKVNDGKYVCEADGFWTSSKGEKSLPVCEPVCGLSARTTGGR chain 2: IYGGQKAKPGDFPWQVLILGGTTAAGALLYDNWVLTAAHAVYEQKHDASALDIRMGTLKRLSPHYTQAWSEAVFIHEGYTHDAGFDNDIALIKLNNKVVINSNITPICLPRKEAESFMRTDDIGTASGWGLTQRGFLARNLMYVDIPIVDHQKCTAAYEKPPYPRGSVTANMLCAGLESGGKDSCRGDSGGALVFLDSETERWFVGGIVSWGSMNCGEAGQYGVYTKVINYIPWIENIISDF							2.7	3	1.3e+06	0.4	a 44-fold increase in the kcat/KM value	2	5.7e+06	or with a large molar excess (40 fold) of alpha-2-macroglobulin
MASP-2 SP fragment (protein) chain 1: ASMTPVCGLSARTTGGR chain 2: IYGGQKAKPGDFPWQVLILGGTTAAGALLYDNWVLTAAHAVYEQKHDASALDIRMGTLKRLSPHYTQAWSEAVFIHEGYTHDAGFDNDIALIKLNNKVVINSNITPICLPRKEAESFMRTDDIGTASGWGLTQRGFLARNLMYVDIPIVDHQKCTAAYEKPPYPRGSVTANMLCAGLESGGKDSCRGDSGGALVFLDSETERWFVGGIVSWGSMNCGEAGQYGVYTKVINYIPWIENIISDF							3.2	3.9	2.5e+06	2		0.2	130000	or with a large molar excess (40 fold) of alpha-2-macroglobulin

Source: patent US20090042248
